According to article PMC7474645:

What was measured:
Experiment in all cases: FRET or BRET
[1] = target: endothelin A receptor fused to Rluc8 (ETA-Rluc8) (UniProt P25101)
[2] = target: formyl peptide 1 receptor fused to Rluc8 (FPR1) (UniProt P21462)
[3] = target: Smoothened fused to Rluc8 (Smo-Rluc8) (UniProt Q99835)
[4] = target: thromboxane A2 receptor fused to Rluc8 (TP-Rluc8) (UniProt P21731)
[5] = target: formyl peptide 2 receptor fused to Rluc8 (FPR2-Rluc8) (UniProt P25090)
Chain of UniProt P25090 (P25090 whole entry, the tested form may be a part): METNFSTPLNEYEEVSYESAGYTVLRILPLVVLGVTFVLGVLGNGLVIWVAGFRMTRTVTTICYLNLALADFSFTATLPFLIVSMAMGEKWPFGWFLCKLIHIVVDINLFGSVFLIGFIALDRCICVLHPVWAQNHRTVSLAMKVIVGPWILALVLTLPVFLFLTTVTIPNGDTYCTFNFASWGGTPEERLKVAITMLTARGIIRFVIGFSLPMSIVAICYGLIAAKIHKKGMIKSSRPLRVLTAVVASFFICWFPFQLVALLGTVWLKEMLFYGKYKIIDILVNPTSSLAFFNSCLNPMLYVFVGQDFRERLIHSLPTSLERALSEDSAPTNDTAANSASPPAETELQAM

Chain of UniProt P25101 (P25101 21-427): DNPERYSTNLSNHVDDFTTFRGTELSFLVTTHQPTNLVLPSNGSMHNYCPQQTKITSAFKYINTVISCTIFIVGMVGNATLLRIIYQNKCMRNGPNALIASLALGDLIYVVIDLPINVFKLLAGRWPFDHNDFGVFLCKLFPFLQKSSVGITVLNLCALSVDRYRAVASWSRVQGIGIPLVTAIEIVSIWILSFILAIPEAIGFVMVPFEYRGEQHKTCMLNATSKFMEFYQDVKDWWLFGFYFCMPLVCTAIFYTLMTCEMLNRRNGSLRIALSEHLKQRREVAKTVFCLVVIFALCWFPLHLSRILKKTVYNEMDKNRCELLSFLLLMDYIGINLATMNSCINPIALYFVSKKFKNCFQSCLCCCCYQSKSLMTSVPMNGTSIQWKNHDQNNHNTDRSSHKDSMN
Chain of UniProt P21731 (P21731 whole entry, the tested form may be a part): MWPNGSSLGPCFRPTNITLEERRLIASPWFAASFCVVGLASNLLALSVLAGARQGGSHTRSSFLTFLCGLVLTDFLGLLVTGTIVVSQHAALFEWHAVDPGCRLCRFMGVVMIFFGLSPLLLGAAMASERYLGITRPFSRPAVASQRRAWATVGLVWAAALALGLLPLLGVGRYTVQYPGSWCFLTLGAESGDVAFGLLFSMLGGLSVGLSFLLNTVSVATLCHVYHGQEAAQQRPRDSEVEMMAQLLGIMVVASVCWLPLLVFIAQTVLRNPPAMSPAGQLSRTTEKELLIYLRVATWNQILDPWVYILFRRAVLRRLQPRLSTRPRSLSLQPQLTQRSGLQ
Chain of UniProt P21462 (P21462 whole entry, the tested form may be a part): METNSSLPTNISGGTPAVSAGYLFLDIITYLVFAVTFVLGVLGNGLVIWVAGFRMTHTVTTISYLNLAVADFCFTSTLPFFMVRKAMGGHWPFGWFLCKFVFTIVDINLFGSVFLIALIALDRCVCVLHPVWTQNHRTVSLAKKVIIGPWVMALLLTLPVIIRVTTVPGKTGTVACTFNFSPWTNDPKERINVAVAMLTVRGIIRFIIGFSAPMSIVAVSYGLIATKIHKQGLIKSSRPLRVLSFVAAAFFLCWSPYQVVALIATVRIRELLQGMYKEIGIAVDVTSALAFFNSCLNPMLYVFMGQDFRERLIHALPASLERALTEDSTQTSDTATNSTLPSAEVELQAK
Chain of UniProt Q99835 (Q99835 28-787): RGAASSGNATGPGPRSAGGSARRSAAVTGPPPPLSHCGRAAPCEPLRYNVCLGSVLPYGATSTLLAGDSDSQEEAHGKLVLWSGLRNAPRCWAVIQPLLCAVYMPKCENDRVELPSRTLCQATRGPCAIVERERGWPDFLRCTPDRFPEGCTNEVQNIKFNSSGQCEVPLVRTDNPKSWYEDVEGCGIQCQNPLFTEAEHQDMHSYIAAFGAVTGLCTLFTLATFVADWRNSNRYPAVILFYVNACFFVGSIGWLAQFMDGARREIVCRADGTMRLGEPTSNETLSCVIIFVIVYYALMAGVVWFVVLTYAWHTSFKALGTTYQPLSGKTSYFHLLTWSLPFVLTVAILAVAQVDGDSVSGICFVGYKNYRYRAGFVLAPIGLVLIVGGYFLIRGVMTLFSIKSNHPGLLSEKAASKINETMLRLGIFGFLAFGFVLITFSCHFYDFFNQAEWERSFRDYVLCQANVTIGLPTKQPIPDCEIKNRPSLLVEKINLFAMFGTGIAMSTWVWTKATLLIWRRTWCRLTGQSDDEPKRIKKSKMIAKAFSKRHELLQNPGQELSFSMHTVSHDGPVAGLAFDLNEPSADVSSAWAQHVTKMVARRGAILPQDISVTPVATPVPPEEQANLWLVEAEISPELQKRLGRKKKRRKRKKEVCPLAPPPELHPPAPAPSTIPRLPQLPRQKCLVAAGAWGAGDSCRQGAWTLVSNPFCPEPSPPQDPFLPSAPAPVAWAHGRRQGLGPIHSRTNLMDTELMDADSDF

RGDP (GDP-resistance ratio) [1] | RGDP (GDP-resistance ratio) [2] | RGDP (GDP-resistance ratio) [3] | RGDP (GDP-resistance ratio) [4] | RGDP (GDP-resistance ratio) [5] | Substance
0.66 | 0.96 | 1.01 | 0.55 |  | G12 heterotrimer, Gα12β1γ2-Venus (from UniProt Q03113;P62873;P59768) (complex)
 |  |  |  | 0.92 | G12 heterotrimer, Gα12β1γ2-Venus (from UniProt Q03113;P62873;P59768) (complex; other documents disagree on this pair)
0.21 |  |  | 0.18 |  | G13 heterotrimer, Gα13β1γ2-Venus (from UniProt Q14344;P62873;P59768) (complex)
0.29 |  |  |  |  | Gq heterotrimer, Gαqβ1γ2-Venus (from UniProt P50148;P62873;P59768) (complex)
